The target of the assay is T1, human FcγRIIa receptor (human, UniProt P12318 34-317).
T1 construct: whole, on cells; also called CD32
T1 sequence (looked up): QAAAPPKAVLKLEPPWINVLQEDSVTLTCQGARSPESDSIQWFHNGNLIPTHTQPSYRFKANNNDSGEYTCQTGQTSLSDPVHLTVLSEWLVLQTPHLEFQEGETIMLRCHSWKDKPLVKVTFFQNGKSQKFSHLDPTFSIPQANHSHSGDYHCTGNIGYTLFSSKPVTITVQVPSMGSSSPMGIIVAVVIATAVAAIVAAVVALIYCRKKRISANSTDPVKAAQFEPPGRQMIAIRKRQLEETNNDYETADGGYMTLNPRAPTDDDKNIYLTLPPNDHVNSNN
Briefly: flow cytometry on human platelets, 2 µM scFv, detected with anti-c-Myc-AF-488. As to the method: Platelet-rich plasma (PRP) was obtained from whole blood after centrifugation at 200×g for 10 minutes. Washing/Suspension buffer (PBS, 0.5% BSA, 25 mM EDTA, pH 6.8) was used for platelet preparation throughout the experiment. 4 μl of PRP was incubated with HRU molecules (2 μM) for 30 minutes. Cells were washed once with 500 μl of buffer (PBS, 0.5% BSA, 25 mM EDTA, pH 6.8) and incubated with anti-c-Myc-AF-488. After washing, platelets were suspended in 200 μl of PBS and analyzed by flow cytometry (CantoII, BD Biosciences). Anti-c-Myc-AF-488 in the absence of HRU was used as negative control.
(In flow cytometry, cells or beads pass a laser one at a time.)

B1: HRU4 (HRU1 with mutations) (scFv)
scFv: EVQLVESGPELKKPGETVKISCKASGYTFTNYGMNWVKQAPGKGLKWMGWLNTYTGESIYPDDFKGRFAFSLETSASTAYLQINNLKSEDTATYFCARGDYGYDDPLDYWGQGTSVTVSSGGGGSGGGGSGGGGSDIVMTQAPPSVPVTPGESVSISCRSSKSLLHTNGNTYLHWFLQKPGQSPRLLIYRMSVLASGVPDRFSGSGSGTDFTLKISRVEAEDVGVYYCMQHLEYPLTFGAGTKLEIKRAEQKLISEEDL
notes: also called H4
In the case of B1, the binding result is listed as “binds”.

B2: HRU2 (HRU1 linked to bivalirudin) (scFv)
scFv: EVKLVESGPELKKPGETVKISCKASGYTFTNYGMNWVKQAPGKGLKWMGWLNTYTGESIYPDDFKGRFAFSLETSASTAYLQINNLKSEDTATYFCARGDYGYDDPLDYWGQGTSVTVSSGGGGSGGGGSGGGGSDIVMTQAPPSVPVTPGESVSISCRSSKSLLHTNGNTYLHWFLQRPGQSPRLLIYRMSVLASGVPDRFSGSGSGTAFTLSISRVEAEDVGVYYCMQHLEYPLTFGAGTKLEIKRAGGGGSGGGGSGGGGFPRPGGGGNGDFEEIPEEYL
notes: scFv fused to bivalirudin; also called H2
For B2, the binding result was “binds”.

The record behind these values is US20230052153A1 (NEWSOUTH INNOVATIONS, published 2023).
